Measured values: paper PMC7954794, “Protein context shapes the specificity of SH3 domain-mediated interactions in vivo” (Nature Communications, 2021)

Tested on: ABP1
Test: DHFR-PCA on solid medium, bait ABP1 (Fig. 1B)
Format: cell-based, Saccharomyces cerevisiae
Conditions: bait ABP1, label = prey; for medrep (log2 median colony size normalized to plate background, PCA score): 2-4 replicates; for Ratio (SH3-deleted/WT medrep): only significant differences showed, PPIs completely lost have a ratio of 0.1 and the gained PPIs 2.5
Excerpt: Supplement 41467_2021_21873_MOESM8_ESM.xlsx, sheet "Fig1B" | column: medsize; medrep; Ratio; Score

Molecule	medrep (log2 median colony size normalized to plate background, PCA score)	Ratio (SH3-deleted/WT medrep)
YAR042W (protein, UniProt P35845 1-1188, looked up) Oxysterol-binding protein …: MEQPDLSSVAISKPLLKLKLLDALRQGSFPNLQDLLKKQFQPLDDPNVQQVLHLMLHYAVQVAPMAVIKEIVHHWVSTTNTTFLNIHLDLNERDSNGNTPLHIAAYQSRGDIVAFLLDQPTINDCVLNNSHLQAIEMCKNLNIAQMMQVKRSTYVAETAQEFRTAFNNRDFGHLESILSSPRNAELLDINGMDPETGDTVLHEFVKKRDVIMCRWLLEHGADPFKRDRKGKLPIELVRKVNENDTATNTKIAIDIELKKLLERATREQSVIDVTNNNLHEAPTYKGYLKKWTNFAQGYKLRWFILSSDGKLSYYIDQADTKNACRGSLNMSSCSLHLDSSEKLKFEIIGGNNGVIRWHLKGNHPIETNRWVWAIQGAIRYAKDREILLHNGPYSPSLALSHGLSSKVSNKENLHATSKRLTKSPHLSKSTLTQNDHDNDDDSTNNNNNKSNNDYDDNNNNNNNDDDDYDDDDESRPLIEPLPLISSRSQSLSEITPGPHSRKSTVSSTRAADIPSDDEGYSEDDSDDDGNSSYTMENGGENDGDEDLNAIYGPYIQKLHMLQRSISIELASLNELLQDKQQHDEYWNTVNTSIETVSEFFDKLNRLTSQREKRMIAQMTKQRDVNNVWIQSVKDLEMELVDKDEKLVALDKERKNLKKMLQKKLNNQPQVETEANEESDDANSMIKGSQESTNTLEEIVKFIEATKESDEDSDADEFFDAEEAASDKKANDSEDLTTNKETPANAKPQEEAPEDESLIVISSPQVEKKNQLLKEGSFVGYEDPVRTKLALDEDNRPKIGLWSVLKSMVGQDLTKLTLPVSFNEPTSLLQRVSEDIEYSHILDQAATFEDSSLRMLYVAAFTASMYASTTNRVSKPFNPLLGETFEYARTDGQYRFFTEQVSHHPPISATWTESPKWDFYGECNVDSSFNGRTFAVQHLGLWYITIRPDHNISVPEETYSWKKPNNTVIGILMGKPQVDNSGDVKVTNHTTGDYCMLHYKAHGWTSAGAYEVRGEVFNKDDKKLWVLGGHWNDSIYGKKVTARGGELTLDRIKTANSATGGPKLDGSKFLIWKANERPSVPFNLTSFALTLNALPPHLIPYLAPTDSRLRPDQRAMENGEYDKAAAEKHRVEVKQRAAKKEREQKGEEYRPKWFVQEEHPVTKSLYWKFNGEYWNKRKNHDFKDCADIF	1.62	2.5
YJL151C (protein, UniProt P14359 1-133, looked up) Protein SNA3: MDRDHINDHDHRMSYSINKDDLLLMVLAVFIPPVAVWKRKGMFNRDTLLNLLLFLLLFFPAIIHACYVVYETSSERSYDLSRRHATAPAVDRDLEAHPAEESQAQPPAYDEDDEAGADVPLMDNKQQLSSGRT	1.425	2.5
YNL287W (protein, UniProt P32074 1-935, looked up) Coatomer subunit gamma: MSAHTYKKFENSTSGDLPDKMTIYQDCMNTFNESPVNSKRCRLLISRLLRLLAQGETFPQNEATALFFSISKLFQHQNDPLRQAVYLAIKELSGISEDVLMATSSIMKDVQNGSDLIKPDAIRSLTYVLDESTAFSAERLLKSAVVSRHPSISSAALCTSYHLLPISEVTIRRFTNETQEAVLDLKQFPNQHGNSEYYPNSTYISQYHALGLLYQLKKTDKMALLKLVRHFSENNSMKNQLAKVELVKIVNDLIYRDPQLFSQFRPLLSDWLSNKFESVQLETAKLITSFATRNSRLVAPELYAAAISALQSLLTVPRVSSRFAALRILNRISMVSPEKIVVCNPELESLINDSNRNISTYAITTLLKTGTSKNISSLISTITNFIHDVSDDFKIIIIDAVRTLSLNFPQEWKSILNFLIDVLKNSEGGFKFKNSIVEALIDIVSFVPQSKELALENLCDFIEDCEFNEILVRILHLLGKEGPSAPNPSLYVRHIYNRVVLENSIIRSAAVVALSKFALTKNDPTLYESIISLLKRIANDKDDEVRDRATIALEFIDSARNKDDVIAQNLIESKYFYDIPSLESKLSSYISSNTDSFATAFDVNQVRKFTEDEMKAINLKRKQEQIFNQKSETTLDTTPEAESVPEKRADANSFAGPNLDDHQEDLLATKYADELLSIEQIKPFGQLVNSSRAISLTEPEAEFVVRGVKHLFKDNVVLQFNITNTLTDIALDNVSVVCTPEISDEAELEELFTLQVDRLLPSEEAACYVAFKKLDEIVMEGFLNNLTFTTKEINPDTNEPFDGDEGFQDEYEIDSIFLNAGDYVKSSFTGNFSATFDELPCEEVAVFNIQEDLSIQEVVDKIILNSSCLPVESTQFAPSDSNSHTLKLFGKSALTGSKVALQIKMIKSSKGLALKVHGKGEDSLLCSDLVNGLMQ	2.55	1.797
YOR284W (protein, UniProt Q12134 1-243, looked up) Protein HUA2: MQQTKFGKMYLDHDSVVEYSEDEIVEADRITLGYKKRLSMIENQMRHLLEDFSLDVQQIEPILADLQKYYDAFLQLLQKRNKSLQCKRSTHQPVPSPMNSQTSTNAKVNLSGKLMKFQLNSVQKFDEENILRILQNKIEFEHYFQIDKGKKQKVLLLAVYQCLNGPTRLHKVLNIEGIIHNNSIRTILGKQVSSSKWTVFLYDVKLVLLAHRQDVPNLETSKMIVRYGDLFPCALYFKDHTAY	3.262	0.1
YGR178C (protein, UniProt P53297 1-722, looked up) PAB1-binding protein 1: MKGNFRKRDSSTNSRKGGNSDSNYTNGGVPNQNNSSMFYENPEITRNFDDRQDYLLANSIGSDVTVTVTSGVKYTGLLVSCNLESTNGIDVVLRFPRVADSGVSDSVDDLAKTLGETLLIHGEDVAELELKNIDLSLDEKWENSKAQETTPARTNIEKERVNGESNEVTKFRTDVDISGSGREIKERKLEKWTPEEGAEHFDINKGKALEDDSASWDQFAVNEKKFGVKSTFDEHLYTTKINKDDPNYSKRLQEAERIAKEIESQGTSGNIHIAEDRGIIIDDSGLDEEDLYSGVDRRGDELLAALKSNSKPNSNKGNRYVPPTLRQQPHHMDPAIISSSNSNKNENAVSTDTSTPAAAGAPEGKPPQKTSKNKKSLSSKEAQIEELKKFSEKFKVPYDIPKDMLEVLKRSSSTLKSNSSLPPKPISKTPSAKTVSPTTQISAGKSESRRSGSNISQGQSSTGHTTRSSTSLRRRNHGSFFGAKNPHTNDAKRVLFGKSFNMFIKSKEAHDEKKKGDDASENMEPFFIEKPYFTAPTWLNTIEESYKTFFPDEDTAIQEAQTRFQQRQLNSMGNAVPGMNPAMGMNMGGMMGFPMGGPSASPNPMMNGFAAGSMGMYMPFQPQPMFYHPSMPQMMPVMGSNGAEEGGGNISPHVPAGFMAAGPGAPMGAFGYPGGIPFQGMMGSGPSGMPANGSAMHSHGHSRNYHQTSHHGHHNSSTSGHK	1.414	2.5
YLR258W (protein, UniProt P27472 1-705, looked up) Glycogen [starch] synthase …: MSRDLQNHLLFETATEVANRVGGIYSVLKSKAPITVAQYKDHYHLIGPLNKATYQNEVDILDWKKPEAFSDEMRPVQHALQTMESRGVHFVYGRWLIEGAPKVILFDLDSVRGYSNEWKGDLWSLVGIPSPENDFETNDAILLGYTVAWFLGEVAHLDSQHAIVAHFHEWLAGVALPLCRKRRIDVVTIFTTHATLLGRYLCASGSFDFYNCLESVDVDHEAGRFGIYHRYCIERAAAHSADVFTTVSQITAFEAEHLLKRKPDGILPNGLNVIKFQAFHEFQNLHALKKEKINDFVRGHFHGCFDFDLDNTLYFFIAGRYEYKNKGADMFIEALARLNYRLKVSGSKKTVVAFIVMPAKNNSFTVEALKGQAEVRALENTVHEVTTSIGKRIFDHAIRYPHNGLTTELPTDLGELLKSSDKVMLKRRILALRRPEGQLPPIVTHNMVDDANDLILNKIRQVQLFNSPSDRVKMIFHPEFLNANNPILGLDYDEFVRGCHLGVFPSYYEPWGYTPAECTVMGVPSITTNVSGFGAYMEDLIETNQAKDYGIYIVDRRFKAPDESVEQLVDYMEEFVKKTRRQRINQRNRTERLSDLLDWKRMGLEYVKARQLALRRGYPDQFRELVGEELNDSNMDALAGGKKLKVARPLSVPGSPRDLRSNSTVYMTPGDLGTLQEVNNADDYFSLGVNPAADDDDDGPYADDS	1.989	2.5
YDL160C (protein, UniProt P39517 1-506, looked up) ATP-dependent RNA helicase …: MGSINNNFNTNNNSNTDLDRDWKTALNIPKKDTRPQTDDVLNTKGNTFEDFYLKRELLMGIFEAGFEKPSPIQEEAIPVAITGRDILARAKNGTGKTAAFVIPTLEKVKPKLNKIQALIMVPTRELALQTSQVVRTLGKHCGISCMVTTGGTNLRDDILRLNETVHILVGTPGRVLDLASRKVADLSDCSLFIMDEADKMLSRDFKTIIEQILSFLPPTHQSLLFSATFPLTVKEFMVKHLHKPYEINLMEELTLKGITQYYAFVEERQKLHCLNTLFSKLQINQAIIFCNSTNRVELLAKKITDLGYSCYYSHARMKQQERNKVFHEFRQGKVRTLVCSDLLTRGIDIQAVNVVINFDFPKTAETYLHRIGRSGRFGHLGLAINLINWNDRFNLYKIEQELGTEIAAIPATIDKSLYVAENDETVPVPFPIEQQSYHQQAIPQQQLPSQQQFAIPPQQHHPQFMVPPSHQQQQAYPPPQMPSQQGYPPQQEHFMAMPPGQSQPQY	1.807	2.5
YBR130C (protein, UniProt P38272 1-425, looked up) SWI5-dependent HO expression …: MSDQDNTQTSSSKLAPHHNIFMANLESSPTKDRNTSSQNASSSRVIESLHDQIDMLTKTNLQLTTQSQNLLSKLELAQSKESKLLENLNLLKNENENLNSIFERKNKKLKELEKDYSELSNRYNEQKEKMDQLSKLAKNSSAIEQSCSEKLQNMEVNYNSLLESQNLYRDHYSDEISKLNEKIGLLELELSNQNLNYGSDTSSNSDIELNLNKFNDSVKDLKSLETEKDSKLSKIITHSLDELNLQSWLNLYQTNENLISTFAEKMDLKDVLKRNDEKISNKGAVVQTLKKNVQTQVESNNADALSSNNAQDMLPIKMVKLRKTPNTNDSSSNGNSSNNKRRSFYTASPLLSSGSIPKSASPVLPGVKRTASVRKPSSSSSKTNVTHNNDPSTSPTISVPPGVTRTVSSTHKKKGNSMVVHGAQS	2.63	–
